This note sets out measurements from the supplement of paper PMC9170038.

Data set [1] relates to MS2 coat protein. Nature of the data set: apparent KD of MS2 coat protein, switch ON state; designed switch direction (-1 OFF switch, 1 ON switch): -1; higher = weaker reporter binding. Particulars: FMN input: 0 or 200 uM; Eterna round: R93 (includes R88 designs). The method, boiled down: (§1)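 Normalised binding curves from single clusters were fitted, and the median fit for each design is given as apparent KD. The clusters held designed RNA switches transcribed on-chip from Illumina sequencing clusters. These were titrated with SNAP-549-labelled MS2 coat protein (twofold steps from 0.7 or 1.5 nM to 3 µM, 0.8–1.5 h to 10–20 min per step) in 100 mM Tris-HCl pH 7.5, 80 mM KCl, 4 mM MgCl2, without or with constant ligand.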

Data set [2] has as its system MS2 coat protein. Nature of the data set: apparent KD of MS2 coat protein, switch OFF state (with FMN for OFF switches, without FMN for ON switches); designed switch direction (-1 OFF switch, 1 ON switch): -1; higher = weaker reporter binding. Particulars: FMN input: 0 or 200 uM; Eterna round: R93 (includes R88 designs). A digest of the protocol: as §1

“AAAACGGUAGGAUAUACAAUUGAGAACUAGAUCGAAAAAAAACAUGAGGAUCACCCAUGUAGAAGGGCCAAAAA [Ex2 Malc#10]”: the “apparent KD of MS2 coat protein” value was 38.2 nM with MS2 coat protein [1] and 23.6 nM in the data set with MS2 coat protein [2].
Turning to “AAAAGGAUAGGAUAUACAUGAGGAUCACCCAUGUGAAAAAAUAAAAAAAAAAAAAAAAGUAGAAGGGUCAAAAA [LROPPY Exclusion 3 - v05_deltaG=3.6]”, the “apparent KD of MS2 coat protein” value was determined as 40.2 nM in the data set with MS2 coat protein [1] and 53.7 nM in the data set on MS2 coat protein [2].
Turning to “AAAAGGUGAGGAUAUUCGAAAAUAAAAUAAAAUAAAAUAAAGAAGAAGGCACAUGAGGAUCACCCAUGUAAUAA [LROPPY Exclusion 4 - v02_deltaG=2.94 break up the As]”, the “apparent KD of MS2 coat protein” value turned out to be 25.9 nM in the data set with MS2 coat protein [1] and 24.9 nM with MS2 coat protein [2].
For “AAAAUACGAGGAUAUACAUGAGGAUCACCCAUGUCAAAAAAUGACUACACAAAAGAAAGUAGAAGGCGUAAAAA [Ex 3 May 16]”, in that order: 25.3 nM and 30.4 nM.
On to “AAAAUGUGAGGAUAUCCGAAGGCGUCUGAUAGACGAGGCUAGGAGAAGGCACAUGAGGAUCACCCAUGUAAAAA [Banishment 11 - Jieux - Exclusion 4]”, for which the “apparent KD of MS2 coat protein” value is 78.8 nM with MS2 coat protein [1] and 137 nM in the data set on MS2 coat protein [2].
In the case of “AAAAUGUUAGGAUAUGUGAAGGCGUCUGAUAGACGAGGCCUGCAGAAGGGACAUGAGGAUCACCCAUGUAAAAA [Mod 1 of Nando's Round 1 Power Srip]”, the “apparent KD of MS2 coat protein” value in the data set on MS2 coat protein [1] was 53.9 nM; in the data set with MS2 coat protein [2], 24.7 nM.
For “AAACAACAUGAGGAUCACCCAUGUUAGGAUAUGAACGAAAAUAAAUAAAAAUAAAAGUUCAGAAGGGACAAAAA [66%, Wbt, 20]”, in that order: 23 nM and 28.2 nM.
For “AAAGAUACAGGAUAUACAUGAGGAUCACCCAUGUGGAAUCUAAAAUGGGAAAAAGAAAGUAGAAGGGUAUAAAA [Ex 3 May 39]”, in that order: 34 nM and 63.5 nM.
As for “AAAGGACGAGGAUAUACAUGAGGAUCACCCAUGUAAAAAACGUAAUAAAAGAACUUAUGUAGAAGGCGUCCAAA [69%, Moding Meechl, 7]”, the results for the “apparent KD of MS2 coat protein” value in the data set on MS2 coat protein [1] and in the data set on MS2 coat protein [2] were 60.9 nM and 221 nM, respectively.
For “AAAGGUACAGGAUAUGCGUGGAAAAAGUGUAUUCAAAAAAAACAUGAGGAUCACCCAUGUAGAAGGGUACCAAA [MS2 Riboswitches On Chip Exclusion 2 wbt1]”, in that order: 69.7 nM and 253 nM.
Consider “AAAGUACAUGAGGAUCACCCAUGUCAGGAUAUCGUGGCGGGAAAAACCGGGAAACGCACGAGAAGGGACAAAAA [EX1 Malc#18 Mod 13 - Jieux - Exclusion 1]”, for which the “apparent KD of MS2 coat protein” value came to 36.2 nM with MS2 coat protein [1] and 42 nM in the data set with MS2 coat protein [2].
For “AAAUAGACAGGAUAUGCAUGAAAAUUAAAAAAAAAAAAAAAACAUGAGGAUCACCCAUGUAGAAGGGUCAAAAA [Exclusion 2 - Omei 1]”, the “apparent KD of MS2 coat protein” value in the data set with MS2 coat protein [1] was found to be 66.6 nM; in the data set with MS2 coat protein [2], 75.8 nM.
On the same counts, the results for “AAAUAGCAAGGAUAUACAUGAGGAUCACCCAUGUGAACCAGGUAUGGAAUAGAAUAGAGUAGAAGGUGCAAAUA [Mod 3 of Ex 3 Tesla 8 - Jieux - Exclusion 3]” are 30.2 nM and 37.8 nM.
With “AAAUAGUUAGGAUAUACAUGAGGAUCACCCAUGUGGACUUAUGGAGAAUAGUUUAAUGGUAGAAGGGACUAAAA [EX2 Malc#25]”, the entries for the “apparent KD of MS2 coat protein” value in the data set on MS2 coat protein [1] and in the data set with MS2 coat protein [2] were 52.8 nM and 36.5 nM, respectively.
For “AACAAACAUGAGGAUCACCCAUGUGAGGAUAUCGAAACAACAAACAACAAACAACAAACGAGAAGGCGCAACAA [e1-2]”, in that order: 18.8 nM and 17.3 nM.
For “AACAAGACAGGAUAUACAUGAGGAUCACCCAUGUCACAAUAAAGCAGCGCAACACAAAGUAGAAGGGUCAUGGA [Ruby 10]”, in that order: 73.8 nM and 59.2 nM.
“AACAAGACAGGAUAUACAUGAGGAUCACCCAUGUCACAAUAAAGCAGCGUAACACAAAGUAGAAGGGUCAUGGA [Ruby 9]”: the “apparent KD of MS2 coat protein” value in the data set with MS2 coat protein [1] was 83.3 nM; in the data set on MS2 coat protein [2] it was 71.5 nM.
For “AACAAGUCAGGAUAUGCGAACAGAAAAUAAGCUACACAAAAGCAGAAGGGACAUGAGGAUCACCCAUGUAAAUA [JR_Exc004_Sub501]”, the “apparent KD of MS2 coat protein” value in the data set with MS2 coat protein [1] stood at 49.9 nM; with MS2 coat protein [2] it was 29.8 nM.
Regarding “AACACACAUGAGGAUCACCCAUGUAAGGAUAUGCAAGCAAGAAGAAAGAACAGAAAAAGCAGAAGGUACACACA [Amethyst 74]”, the “apparent KD of MS2 coat protein” value in the data set on MS2 coat protein [1] came to 28.4 nM; in the data set with MS2 coat protein [2], 24.3 nM.
Consider “AACAGACAUGAGGAUCACCCAUGUAAGGAUAUCCAAAACGAUAAAACAAGAAUGACAGGGAGAAGGUACAGCAA [JR_Exc001_Sub007]”, for which the “apparent KD of MS2 coat protein” value in the data set with MS2 coat protein [1] was determined as 53.6 nM; in the data set on MS2 coat protein [2], 49 nM.
“AACAGGACAGGAUAUACAUGAGGAUCACCCAUGUGAGAAUUUAGCAGCGUACCACACAGUAGAAGGGUCAUGGA [Ruby 23]”: the “apparent KD of MS2 coat protein” value with MS2 coat protein [1] was found to be 40.8 nM; in the data set with MS2 coat protein [2], 48.6 nM.
On the same counts, the results for “AACAGGUCAGGAUAUGUGGAAAAAAUAAAAAAAAUAAAAACACAGAAGGGACAUGAGGAUCACCCAUGUCAACA [May 24]” are 30 nM and 25.3 nM.
Regarding “AACAGUACAGGAUAUACAUGAGGAUCACCCAUGUGAAAAUUAAGUGGCGUACCACAAAGUAGAAGGGUACUGGA [Moding Maslow revisited (73) 3]”, the “apparent KD of MS2 coat protein” value worked out at 29.4 nM in the data set on MS2 coat protein [1] and 86.4 nM in the data set on MS2 coat protein [2].
For “AACAGUACAGGAUAUACAUGAGGAUCACCCAUGUGAAGAUUAAGUGGUGUACCACAAAGUAGAAGGGUACUGGA [Ruby 90]”, in that order: 54.9 nM and 77.9 nM.
For “AACAGUACAGGAUAUACAUGAGGAUCACCCAUGUGAGAAACCAAUGGCGUACCAUAAAGUAGAAGGGUACUGGA [Moding Maslow Revisited (73) 31]”, the “apparent KD of MS2 coat protein” value with MS2 coat protein [1] is 62.3 nM; in the data set with MS2 coat protein [2] it was 158 nM.
For “AACAUACAUGAGGAUCACCCAUGUUAGGAUAUGCCGGGUUAGAGCCAACUAAAAAACCGUAGAAGGGACGAAAA [Bilbo Confounded 10 - Jieux - Exclusion 1]”, the “apparent KD of MS2 coat protein” value in the data set with MS2 coat protein [1] stood at 30.7 nM; with MS2 coat protein [2] it was 28.2 nM.
“AACAUGUCAGGAUAUUUAAGAAAAGAAAAGAAAGAAAAGAAAAAGAAGGGACAUGAGGAUCACCCAUGUAAGAA [EteRNA is fun!]”: the “apparent KD of MS2 coat protein” value in the data set with MS2 coat protein [1] was found to be 117 nM; in the data set with MS2 coat protein [2], 56.8 nM.
Take “AACAUGUGAGGAUAUAAAAGAAAAGAAAAGAAAGAAAAGAAUUAGAAGGCACAUGAGGAUCACCCAUGUAAGAA [EteRNA is fun!]”: the “apparent KD of MS2 coat protein” value with MS2 coat protein [1] worked out at 28.2 nM; in the data set on MS2 coat protein [2] it was 31.9 nM.
“AACUAACAUGAGGAUCACCCAUGUCAGGAUAUGCAUCGAUCGAUCGAUCGAUCGAUCAGCAGAAGGGACAAAAA [Amethyst 92]”: the “apparent KD of MS2 coat protein” value was 22.3 nM with MS2 coat protein [1] and 37 nM in the data set with MS2 coat protein [2].
For “AACUAGUGAGGAUAUACAAGAAAACAAACAAAAAUGAAGGGACAUGAGGAUCACCCAUGUAGAAGGCACUAACA [Diamond 70]”, in that order: 48.2 nM and 100 nM.
For “AACUGACAUGAGGAUCACCCAUGUCAGGAUAUGACUUCAAAAAAAAAAAAAAAUGAUGUCAGAAGGGACAUGGA [Design 64: Sub-opt MB]”, in that order: 19.2 nM and 20.7 nM.
On the same counts, the results for “AACUGACAUGAGGAUCACCCAUGUCAGGAUAUGACUUCGAAAAAUAAAAUAAACGAUGUCAGAAGGGACAUGGA [Design 67: Sub-opt NB]” are 21.5 nM and 41.1 nM.
For the sequence “AACUGUACAGGAUAUACAUGAGGAUCACCCAUGUGAGAAUUAAGUGGCGAACCACAAAGUAGAAGGGUACAGGA [Mat - Exclusion 3 - JL mod - D16]”, the figures for the “apparent KD of MS2 coat protein” value in the data set on MS2 coat protein [1] and in the data set with MS2 coat protein [2] were 50.3 nM and 138 nM, respectively.
On the same counts, the results for “AAGAAACAUGAGGAUCACCCAUGUCAGGAUAUCUAAAAGAAAAGAAAAGAAAGAAGAAAGAGAAGGGACAAAGG [Neferirkare]” are 39.2 nM and 61.3 nM.
For “AAGAAACAUGAGGAUCACCCAUGUGAGGAUAUGGAAAAGAAAAGAAAAGAAAGAAGAAUCAGAAGGCACAAAGG [Meryhathor]”, in that order: 46.4 nM and 26.9 nM.
For “AAGAAAGAAGGAUAUACAAGGAAGAAAGAAAAGAAAAGAAAACAUGAGGAUCACCCAUGUAGAAGGUCUUAGAA [EteRNA is fun!]”, in that order: 19.5 nM and 13.8 nM.
As for “AAGAACAGAGGAUAUACAUGAGGAUCACCCAUGUAAAAGAAAGAAAGGGAAAAGAAAAGUAGAAGGCUGAAGAA [Neferkare Heqawaset Amenemnisu]”, the “apparent KD of MS2 coat protein” value in the data set on MS2 coat protein [1] stood at 32.3 nM; in the data set with MS2 coat protein [2], 43.4 nM.
For the sequence “AAGAACAGAGGAUAUACAUGAGGAUCACCCAUGUAAAAGAAAGAAGGGAAAGAGAAAAGUAGAAGGCUGAAGAA [Titaru]”, the entries for the “apparent KD of MS2 coat protein” value in the data set with MS2 coat protein [1] and in the data set on MS2 coat protein [2] were 25 nM and 31.7 nM, respectively.
In the case of “AAGAACGCAGGAUAUACAUGAGGAUCACCCAUGUAAAAGAAAGAAGGGAAAGAGAAAAGUAGAAGGGCGAAGAA [Usermaatre-setepenamun Iuput I]”, the results for the “apparent KD of MS2 coat protein” value with MS2 coat protein [1] and with MS2 coat protein [2] were 35.3 nM and 41.8 nM, respectively.
